Consider one molecule from patent US20250179210A1, “ANTI-CEACAM5 ANTIBODIES AND CONJUGATES AND USES THEREOF” (Merck Patent GmbH, priority 2022, published 2025).

The experiment deals with Recombinant Macaca fascicularis CEACAM5_ECD-His-biotin (Syngene) (Macaca fascicularis). The experiment in a line: BLI (Octet Red), biotinylated antigen captured on streptavidin biosensor, Fab as analyte 6.25-200 nM. (In general: BLI is a label-free optical method that tracks binding on a fibre tip over time.)
Sequence of Recombinant Macaca fascicularis CEACAM5_ECD-His-biotin (Syngene) (Macaca fascicularis) (chain, as listed by the source limits assumed, form in doubt): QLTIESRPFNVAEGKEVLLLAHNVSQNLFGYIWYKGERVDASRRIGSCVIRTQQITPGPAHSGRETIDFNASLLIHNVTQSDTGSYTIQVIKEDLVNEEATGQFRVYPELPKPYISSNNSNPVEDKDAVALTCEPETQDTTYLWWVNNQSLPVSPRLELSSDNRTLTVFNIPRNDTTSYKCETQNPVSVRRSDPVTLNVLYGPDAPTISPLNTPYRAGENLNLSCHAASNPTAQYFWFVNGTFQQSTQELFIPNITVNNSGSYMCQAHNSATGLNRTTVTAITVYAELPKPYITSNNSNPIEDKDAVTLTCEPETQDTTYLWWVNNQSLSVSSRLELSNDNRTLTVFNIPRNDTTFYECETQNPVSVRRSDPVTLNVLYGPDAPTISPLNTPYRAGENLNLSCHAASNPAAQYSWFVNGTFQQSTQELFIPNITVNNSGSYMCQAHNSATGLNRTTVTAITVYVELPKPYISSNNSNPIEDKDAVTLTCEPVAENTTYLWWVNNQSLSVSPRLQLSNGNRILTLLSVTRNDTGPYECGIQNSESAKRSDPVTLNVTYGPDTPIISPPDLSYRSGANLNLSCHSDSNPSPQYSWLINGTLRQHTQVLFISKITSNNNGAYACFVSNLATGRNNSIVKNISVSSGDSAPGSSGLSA

B1: Fab of mAb1 (Fab, V domains shown)
VH: EVQLQESGPGLVKPSQTLSLTCTVSDGSVSRGGYYLTWIRQHPGKGLEWIGYIYYSGSTYFNPSLRSRVTMSVDTSKNQFSLKLSSVTAADTAVYYCARGIAVAPFDYWGQGTLVTVSS
VL: EIVLTQSPATLSVSPGERATLSCRTSQSVRSNLAWYQQKPGQAPRLLIYAASTRATGIPARFSGSGSGTEFTLTISSLQSEDFAVYYCQQYTNWPFTFGPGTKVDIK
Take B1: the dissociation constant (Kd) is 14.1 nM.

What is called Kd is the equilibrium constant for the complex coming apart.
